Data: patent US20140120095A1 (Boehringer Ingelheim, published 2014)
One block for each binder: values may come before it.

Experiments:
[1] = target: T1, human DLL4 overexpressed on cells (human, UniProt Q9NR61 27-685); test: competitive FMAT, hNotch1-Fc on CHO-hDLL4
T1 construct: full length human DLL4 on CHO or HEK293 cells; also called CHO-hDLL4; CHO-hDII4

recombinant human DLL4 [2] = target: T2, recombinant human DLL4 (human, UniProt Q9NR61 25-522); test: SPR Biacore T100, hDLL4 on chip, VHH/Fab injected
T2 construct: also called rhDLL4; hDLL4
Method: (§1) Kinetic analysis to determine the affinity of the DII4-VHH interaction is performed by Surface Plasmon Resonance (SPR) on a Biacore T100 instrument. […] Purified VHHs or Fab fragment are injected for 2 minutes at different concentrations (between 10 and 300 nM) and allowed to dissociate for 20 min at a flow rate of 45 μl/min. Between sample injections, the surfaces are regenerated with 10 mM glycine pH1.5 and 100 mM HCl. HBS-N (Hepes buffer pH7.4) is used as running buffer. If possible, data are evaluated by fitting a 1:1 interaction model (Langmuir binding) onto the binding curves. The affinity constant KD is calculated from resulting association and dissociation rate constants (kₐ) and […].

human Jagged-1 = target: T3, human Jagged-1 (human, UniProt P78504 34-1067, limits assumed); test: binding ELISA on coated recombinant human Jagged-1, OD 405 nm
T3 construct: also called hJagged-1; hJAG1
Method: Absence of binding to homologous ligands human DLL1 and human Jagged-1 is assessed via solid phase binding assay (ELISA). In brief, human DLL1 (Alexis, San Diego, Calif., USA) and human Jagged-1 (Alexis, San Diego, Calif., USA) are coated overnight at 4° C. at 1 μg/mL in a 96-well MaxiSorp plate (Nunc, Wiesbaden, Germany). Wells are blocked with a casein solution (1% in PBS). VHHs are applied as dilution series and binding is detected using a mouse anti-myc (Roche) and an anti-mouse-AP conjugate (Sigma, St. Louis, Mo., USA).

[3] = target: T1, human DLL4 overexpressed on cells; test: FACS titration on HEK293-hDLL4 cells, MCF
Method: (§2) In order to determine the cynomologus cross-reactivity of the VHHs, a FACS binding experiment is performed. Cynomolgus DII4 expressing HEK293 cells (transient or stable transfection) are used for a titration binding experiment of the VHHs. After a 30 minutes incubation on ice, all samples are washed and detection is performed by applying anti-c-myc˜Alexa647 (Santa Cruz Biotechnology, Santa Cruz, Calif., USA). Human and mouse DII4 overexpressing HEK293 cells are taken as reference. The mean MCF value is determined on the FACS Array and used for calculation of the EC₅₀ value (see FIG. 9 A-E).

[4] = target: T4, cynomolgus DLL4 overexpressed on cells (cynomolgus, UniProt Q9NR61 27-685 (human entry)); test: FACS titration on HEK293-cDLL4 cells, MCF
T4 construct: also called cyno DII4; cDLL4
T4 chain: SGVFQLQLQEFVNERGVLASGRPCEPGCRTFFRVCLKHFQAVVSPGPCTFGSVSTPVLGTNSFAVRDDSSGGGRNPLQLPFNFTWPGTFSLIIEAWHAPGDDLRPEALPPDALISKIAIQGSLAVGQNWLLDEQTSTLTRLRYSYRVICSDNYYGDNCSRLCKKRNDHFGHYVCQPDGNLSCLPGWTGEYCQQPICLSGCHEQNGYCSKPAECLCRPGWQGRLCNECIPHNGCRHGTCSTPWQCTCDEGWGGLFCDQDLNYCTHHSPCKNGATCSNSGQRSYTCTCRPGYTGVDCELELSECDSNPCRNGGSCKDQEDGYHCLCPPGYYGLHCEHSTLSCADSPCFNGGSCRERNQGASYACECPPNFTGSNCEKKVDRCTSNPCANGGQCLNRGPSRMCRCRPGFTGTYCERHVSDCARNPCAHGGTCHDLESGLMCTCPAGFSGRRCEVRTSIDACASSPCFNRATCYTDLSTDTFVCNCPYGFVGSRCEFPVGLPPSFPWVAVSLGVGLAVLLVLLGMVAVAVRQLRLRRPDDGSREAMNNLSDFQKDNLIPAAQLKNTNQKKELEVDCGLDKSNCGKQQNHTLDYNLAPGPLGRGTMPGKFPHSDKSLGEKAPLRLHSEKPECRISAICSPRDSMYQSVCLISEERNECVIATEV
Method: as §2

recombinant mouse DLL4 = target: T5, recombinant mouse DLL4 (mouse, UniProt Q9JI71 27-532); test: binding ELISA, coated rmDLL4
T5 construct: extracellular domain; also called rmDLL4; mDLL4
T5 sequence (Q9JI71 27-532): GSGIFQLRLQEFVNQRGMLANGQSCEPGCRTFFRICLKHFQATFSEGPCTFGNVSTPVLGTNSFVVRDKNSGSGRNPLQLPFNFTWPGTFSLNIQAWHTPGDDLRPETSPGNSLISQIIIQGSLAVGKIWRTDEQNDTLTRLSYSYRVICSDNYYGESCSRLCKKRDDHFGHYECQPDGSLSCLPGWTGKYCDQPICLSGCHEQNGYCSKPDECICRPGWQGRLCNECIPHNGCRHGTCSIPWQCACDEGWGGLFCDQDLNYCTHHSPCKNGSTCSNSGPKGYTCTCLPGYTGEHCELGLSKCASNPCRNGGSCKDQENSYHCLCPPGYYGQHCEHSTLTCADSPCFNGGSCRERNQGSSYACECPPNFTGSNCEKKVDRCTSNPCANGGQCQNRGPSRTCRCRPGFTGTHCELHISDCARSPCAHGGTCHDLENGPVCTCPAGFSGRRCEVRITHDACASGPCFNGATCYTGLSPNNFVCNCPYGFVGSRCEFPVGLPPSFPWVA
Method: (§3) In order to determine cross-reactivity to mouse DII4 a binding ELISA is performed. […] Wells are blocked with a casein solution (1% in PBS). VHHs are applied as dilution series and binding is detected using a mouse anti-myc (Roche) and an anti-mouse-AP conjugate (Sigma, St Louis, Mo., USA) (FIG. 7 A-H). As reference, binding to human DII4 is measured.

recombinant human DLL4 [5] = target: T2, recombinant human DLL4; test: binding ELISA, coated rhDLL4
Method: as §3

recombinant human DLL4 [6] = target: T2, recombinant human DLL4; test: competition ELISA, biot-hDLL4 to coated hNotch1-Fc
Text: Residual binding of biotinylated human DII4 is detected using horseradish peroxidase (HRP) conjugated extravidin (Sigma, St. Louis, Mo., USA) (FIG. 3 A-C). Human DII4 is biotinylated as described above.

[7] = target: T6, mouse DLL4 overexpressed on cells (mouse, UniProt Q9JI71 27-686); test: competitive FMAT, hNotch1-Fc on CHO-mDLL4
T6 construct: whole, on cells; also called CHO-mDLL4; CHO-mDII4
T6 sequence (Q9JI71 27-686): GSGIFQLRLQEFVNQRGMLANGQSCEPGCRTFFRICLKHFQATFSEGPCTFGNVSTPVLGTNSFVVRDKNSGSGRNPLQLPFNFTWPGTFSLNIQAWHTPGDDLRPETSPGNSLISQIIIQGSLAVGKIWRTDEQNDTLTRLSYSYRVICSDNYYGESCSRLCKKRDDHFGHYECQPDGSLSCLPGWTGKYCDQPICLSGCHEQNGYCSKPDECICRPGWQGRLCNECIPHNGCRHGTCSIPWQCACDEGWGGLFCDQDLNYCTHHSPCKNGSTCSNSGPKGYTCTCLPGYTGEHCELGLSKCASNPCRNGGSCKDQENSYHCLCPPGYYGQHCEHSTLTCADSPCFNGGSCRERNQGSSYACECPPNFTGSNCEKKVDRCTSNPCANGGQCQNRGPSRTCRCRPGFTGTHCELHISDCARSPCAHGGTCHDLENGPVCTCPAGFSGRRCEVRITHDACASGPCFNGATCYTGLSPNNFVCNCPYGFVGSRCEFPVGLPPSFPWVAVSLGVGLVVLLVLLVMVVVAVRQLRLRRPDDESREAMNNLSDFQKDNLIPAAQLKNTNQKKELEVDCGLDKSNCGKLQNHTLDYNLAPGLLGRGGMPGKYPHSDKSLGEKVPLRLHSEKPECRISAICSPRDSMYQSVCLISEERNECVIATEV

recombinant human DLL4 [8] = target: T2, recombinant human DLL4; test: competition AlphaScreen, biot-hDLL4/hNotch1-Fc
Method: In brief, 1 nM biotinylated human DII4 is captured on streptavidin-coated donor beads (20 μg/mL), while 0.4 nM of the receptor human Notch1 (as a Fc fusion protein) is captured on anti-human Fc VHH-coated acceptor beads (20 μg/mL). Both loaded beads are incubated together with a dilution range of the competing VHH (FIG. 4 A-E).

[9] = target: T6, mouse DLL4 overexpressed on cells; test: FMAT, labelled hNotch1-Fc on CHO-mDLL4, periplasmic extract
Text: (§4) All calculations are based on the FL1_total signal which comprises the average of the fluorescence per well times the number of counts per well.

[10] = target: T1, human DLL4 overexpressed on cells; test: FMAT, labelled hNotch1-Fc on CHO-hDLL4, periplasmic extract
Text: as §4

recombinant human DLL4 [11] = target: T2, recombinant human DLL4; test: Biacore off-rate, periplasmic extract
[12] = target: T7, human DLL4 expressed on cells (CHO-hDLL4; HEK293-hDLL4) (human, UniProt Q9NR61 27-685); test: competition FMAT, labelled hNotch1-Fc on CHO-hDLL4 cells
T7 construct: full length human DLL4 overexpressed on CHO cells (FMAT, FACS) or HEK293 cells (reporter assay)

[13] = target: T8, recombinant human DLL4 (C-terminally His-tagged extracellular domain, R&D Systems) (human, UniProt Q9NR61 25-522, biotinylated in the competition ELISA); test: SPR (Biacore), recombinant human DLL4
T8 construct: also called rhDLL4; hDLL4
Method: as §1

[14] = target: T7, human DLL4 expressed on cells …; test: cell-based or functional assay
[15] = target: T8, recombinant human DLL4 (C-terminally …); test: competition ELISA hDLL4/hNotch1-Fc; summary table
[16] = target: T8, recombinant human DLL4 (C-terminally …); test: competition ELISA, biotinylated hDLL4 to coated hNotch1-Fc

% inh [9]: 73%
% inh [10]: 95%
koff (recombinant human DLL4 [11]): 0.0016 s⁻¹
B2: DLLBII58A11 (VHH)
VHH: EVQLVESGGGLVQAGGSLRLSCTTSERTVSRYSMGWFRQAPGKEREAVATISWSGDSTYYADSVKGRFTISRDNTKNTLYLQIDSLKPEDTAVYYCVAKPNLKYGSYWPPRGYDYWGQGTQVTVSS

IC50, DLL4-mediated reporter assay [14]: 18 nM
IC50 [15]: 1.3 nM
IC50 [16]: 1.3 nM
B6: DLLBII134D10 (VHH, not shown: small tags and cut ends)
VHH: EVQLVESGGGLVQPGGSLRLSCAASGFTIGSYDMSWVRRSPGKGPEWVSSINSGGGSTYYTDYVKGRFTISRDNAKNTLYLQMNSLKPEDTAVYYCAADRYIWARQGEYWGAYAYDYWGQGTQVTVSS

% inh [9]: 93%
% inh [10]: 87%
koff (recombinant human DLL4 [11]): 0.00041 s⁻¹
B8: DLLBII83G01 (VHH)
VHH: EVQLVESGGGLVQAGGSLRLSCAASGRTFSNYIMGWFRQAPGKEREFVAGISRYADYTGYADSVKGRFTISRDNVKNTVYLRMNSLKPDDTAVYYCAANEGYCSGYGCYEDSGQYDYWGQGTQVTVSS

More lines, now with the values behind:

B1: DLLBII56H08 (VHH)
VHH: EVQLVESGGGLVQPGGSLRLSCAASGFTFDDYAIGWFRQAPGKEPEEISCISSSGGITYYADSVKGRFTISRDNAKNTVYLQMNSLKPEDTAVYYCATPGIAACRGIHYTGQGTQVTVSS
IC50 [1]: 22 nM
Kd (recombinant human DLL4 [2]): 9.4 nM
koff (recombinant human DLL4 [2]): 0.0011 s⁻¹
kon (recombinant human DLL4 [2]): 120000 M⁻¹ s⁻¹
binding result (human Jagged-1): no binding (tested: 2.5e-7 M)
EC50 (read off the curve) [3]: ~7 nM
EC50 (read off the curve) [4]: ~4 nM
EC50 (recombinant mouse DLL4): 8.7 nM
EC50 (recombinant human DLL4 [5]): 4.1 nM
IC50 (recombinant human DLL4 [6]): 6.9 nM
IC50 [7]: 33.7 nM
IC50 (recombinant human DLL4 [8]): 1.6 nM

B3: DLLBII019 (VHH, not shown: small tags and cut ends)
VHH: EVQLVESGGGLVQPGGSLRLSCAASGFTFGSYDMSWVRRSPGKGPEWVSSINSGGGSTYYADYVKGRFTISRDNAKNTLYLQMNSLRPEDTAVYYCAADRYIWARQGEYWGAYEYDYWGQGTLVTVSS
IC50 [12]: 3 nM
Kd [13]: 1.3 nM
koff [13]: 0.00074 s⁻¹
kon [13]: 570000 M⁻¹ s⁻¹

B4: DLLBII022 (VHH, not shown: small tags and cut ends)
VHH: EVQLVESGGGLVQPGGSLRLSCAASGFTFGSYDMSWVRQAPGKGPEWVSSINSGGGSTYYADYVKGRFTISRDNAKNTLYLQMNSLRPEDTAVYYCAADRYIWARQGEYWGAYEYDYWGQGTLVTVSS
IC50 [12]: 95.4 nM
Kd [13]: 46 nM
koff [13]: 0.022 s⁻¹
kon [13]: 470000 M⁻¹ s⁻¹

B5: DLLBII020 (VHH, not shown: small tags and cut ends)
VHH: EVQLVESGGGLVQPGGSLRLSCAASGFTFGSYDMSWVRQSPGKGPEWVSSINSGGGSTYYADYVKGRFTISRDNAKNTLYLQMNSLRPEDTAVYYCAADRYIWARQGEYWGAYEYDYWGQGTLVTVSS
IC50 [12]: 44.6 nM
Kd [13]: 27 nM
koff [13]: 0.0093 s⁻¹
kon [13]: 340000 M⁻¹ s⁻¹

B7: DLLBII021 (VHH, not shown: small tags and cut ends)
VHH: EVQLVESGGGLVQPGGSLRLSCAASGFTFGSYDMSWVRRAPGKGPEWVSSINSGGGSTYYADYVKGRFTISRDNAKNTLYLQMNSLRPEDTAVYYCAADRYIWARQGEYWGAYEYDYWGQGTLVTVSS
IC50 [12]: 2.1 nM
Kd [13]: 1 nM
koff [13]: 0.00057 s⁻¹
kon [13]: 560000 M⁻¹ s⁻¹
